From patent US20070224194A1, “Methods for Inhibiting Angiogenesis and/or Lymphangiogenesis” (LUDWIG INSTITUTE FOR CANCER RESEARCH, priority 2004, published 2007)
Read-outs that look alike come from different tables or passages of the source.

Key:
[1] = target: T1, VEGFR-1-Ig (human, UniProt P17948 27-758); experiment: pull-down with receptor-Ig on protein-A sepharose from LoVo conditioned medium, Western blot
T1 construct: extracellular domain; R&D Systems is named as its source; used as a negative control; also called soluble fusion protein of the extracellular domain of human VEGFR-1 and the Fc portion of human IgG; not shown: Fc portion of human IgG
Experimental: (§1) Binding to receptor extracellular domains was examined using soluble fusion proteins consisting of the extracellular domains of human VEGFR-1, VEGFR-2 or VEGFR-3 joined to the Fe portions of human IgG (referred to as VEGFR-1-Ig (R&D Systems), VEGFR-2-Ig and VEGFR-3-Ig) (Achen et al, Proc. Natl. Acad. Sci. USA 95 548-553, 1998). Protein-A sepharose beads were incubated overnight with the conditioned media of 293EBNA cells expressing VEGFR-1-Ig, VEGFR-2-Ig or VEGFR-3-Ig to precipitate the soluble receptor constructs. The soluble receptors bound to protein-A sepharose beads were recovered by centrifugation (5 minutes, 250×g, 4° C.) and washed twice with binding buffer (0.5% (w/v) BSA, 0.02% (v/v) Tween 20, 10 μg/ml heparin in phosphate buffered saline). The soluble receptors bound to protein-A sepharose beads were then incubated with the conditioned media of LoVo cells, that had been co-transfected with pVDAPEX FULL-N-FLAG and pcDNA3:furin, for three hours at room temperature, and washed twice with binding buffer. Proteins bound to the VEGFR-2-Ig and VEGFR-3-Ig constructs were analysed by reducing SDS-PAGE and Western blotting with a biotinylated antibody against the VHD of human VEGF-D (R&D Systems), followed by Streptavidin-horse radish peroxidase conjugate (Zymed).

[2] = target: T2, VEGFR-2 (Homo sapiens, UniProt P35968); experiment: Biosensor analysis (surface plasmon resonance) of VEGF-D ligands on VEGFR-2; format: binding; conditions: 1:1 Langmurian model
Experimental: (§2) To determine the relative affinities of the ligands VEGF-DSSTS.IISS, VEGF-D-FULL-N-FLAG and mature VEGF-D (designated VEGF-DΔNΔC) for VEGFR-2 and VEGFR-3, the relative binding kinetics for these interactions was analyzed by biosensor analysis using surface plasmon resonance detection (Nice et al., Bioessays, 21:339-352, 1999). The preparations of VEGF-DSSTS.IISS and VEGF-DΔNΔC used for this analysis each consisted of one VEGF-D species devoid of other forms of VEGF-D but the preparation of VEGF-D-FULL-N-FLAG did contain traces of partially processed as well as full-length material, reflecting the capacity of wild-type full-length VEGF-D to be proteolytically processed in the 293EBNA cell cultures) from which these proteins were purified (see FIG. 10B). The binding constants for the interactions were obtained by analysis of the initial dissociation phase to obtain the kd, which was then used to constrain a global analysis of the association region of the curves, using regions of the curves where a 1:1 Langmurian model appeared to be operative.

[3] = target: T3, VEGFR-3 (Homo sapiens, UniProt P35916); experiment: Biosensor analysis (surface plasmon resonance) of VEGF-D ligands on VEGFR-3; format: binding
Experimental: as §2

[4] = target: T3, VEGFR-3; conditions: cited from earlier work
[5] = target: T2, VEGFR-2; conditions: full-length form that could be processed, cited from earlier work
[6] = target: T4, extracellular domain of human VEGFR-3 (VEGFR-3-Ig) (Homo sapiens, UniProt P35916); experiment: Precipitation with soluble receptor VEGFR-3-Ig from LoVo conditioned media; format: binding; conditions: conditioned media of LoVo cells co-transfected with VEGF-D-FULL-N-FLAG and furin
T4 construct: soluble fusion proteins consisting of the extracellular domains of human VEGFR-1, VEGFR-2 or VEGFR-3; made in house; host or cells: 293EBNA cells (conditioned media, captured on protein-A sepharose)
T4 sequence (P35916 25-775 limits assumed): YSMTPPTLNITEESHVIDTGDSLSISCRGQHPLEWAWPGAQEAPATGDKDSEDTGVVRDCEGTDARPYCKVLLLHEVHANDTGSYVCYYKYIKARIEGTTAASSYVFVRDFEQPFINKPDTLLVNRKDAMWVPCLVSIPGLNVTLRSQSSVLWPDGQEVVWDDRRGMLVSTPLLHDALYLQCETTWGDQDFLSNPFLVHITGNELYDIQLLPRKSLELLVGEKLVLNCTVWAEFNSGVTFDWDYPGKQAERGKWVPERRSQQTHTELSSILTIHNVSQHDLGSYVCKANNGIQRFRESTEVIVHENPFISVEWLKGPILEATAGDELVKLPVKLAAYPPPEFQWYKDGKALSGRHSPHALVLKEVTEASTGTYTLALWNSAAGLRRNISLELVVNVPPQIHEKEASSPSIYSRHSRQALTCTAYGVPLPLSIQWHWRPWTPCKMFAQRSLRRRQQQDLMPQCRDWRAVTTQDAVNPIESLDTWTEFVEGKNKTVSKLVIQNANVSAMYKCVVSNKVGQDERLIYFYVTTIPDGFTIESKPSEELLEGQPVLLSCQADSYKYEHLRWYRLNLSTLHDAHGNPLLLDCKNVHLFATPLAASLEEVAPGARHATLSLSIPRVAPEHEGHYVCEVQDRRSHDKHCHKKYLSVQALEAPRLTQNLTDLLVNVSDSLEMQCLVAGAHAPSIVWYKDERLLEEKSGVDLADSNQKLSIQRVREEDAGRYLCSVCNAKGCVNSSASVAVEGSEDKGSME
Experimental: as §1

[7] = target: T5, extracellular domain of human VEGFR-2 (VEGFR-2-Ig) (Homo sapiens, UniProt P35968); experiment: Precipitation with soluble receptor VEGFR-2-Ig from LoVo conditioned media; format: binding; conditions: conditioned media of LoVo cells co-transfected with VEGF-D-FULL-N-FLAG and furin
T5 construct: soluble fusion proteins consisting of the extracellular domains of human VEGFR-1, VEGFR-2 or VEGFR-3; made in house; host or cells: 293EBNA cells (conditioned media, captured on protein-A sepharose)
Experimental: as §1

T2 sequence (P35968 20-1356): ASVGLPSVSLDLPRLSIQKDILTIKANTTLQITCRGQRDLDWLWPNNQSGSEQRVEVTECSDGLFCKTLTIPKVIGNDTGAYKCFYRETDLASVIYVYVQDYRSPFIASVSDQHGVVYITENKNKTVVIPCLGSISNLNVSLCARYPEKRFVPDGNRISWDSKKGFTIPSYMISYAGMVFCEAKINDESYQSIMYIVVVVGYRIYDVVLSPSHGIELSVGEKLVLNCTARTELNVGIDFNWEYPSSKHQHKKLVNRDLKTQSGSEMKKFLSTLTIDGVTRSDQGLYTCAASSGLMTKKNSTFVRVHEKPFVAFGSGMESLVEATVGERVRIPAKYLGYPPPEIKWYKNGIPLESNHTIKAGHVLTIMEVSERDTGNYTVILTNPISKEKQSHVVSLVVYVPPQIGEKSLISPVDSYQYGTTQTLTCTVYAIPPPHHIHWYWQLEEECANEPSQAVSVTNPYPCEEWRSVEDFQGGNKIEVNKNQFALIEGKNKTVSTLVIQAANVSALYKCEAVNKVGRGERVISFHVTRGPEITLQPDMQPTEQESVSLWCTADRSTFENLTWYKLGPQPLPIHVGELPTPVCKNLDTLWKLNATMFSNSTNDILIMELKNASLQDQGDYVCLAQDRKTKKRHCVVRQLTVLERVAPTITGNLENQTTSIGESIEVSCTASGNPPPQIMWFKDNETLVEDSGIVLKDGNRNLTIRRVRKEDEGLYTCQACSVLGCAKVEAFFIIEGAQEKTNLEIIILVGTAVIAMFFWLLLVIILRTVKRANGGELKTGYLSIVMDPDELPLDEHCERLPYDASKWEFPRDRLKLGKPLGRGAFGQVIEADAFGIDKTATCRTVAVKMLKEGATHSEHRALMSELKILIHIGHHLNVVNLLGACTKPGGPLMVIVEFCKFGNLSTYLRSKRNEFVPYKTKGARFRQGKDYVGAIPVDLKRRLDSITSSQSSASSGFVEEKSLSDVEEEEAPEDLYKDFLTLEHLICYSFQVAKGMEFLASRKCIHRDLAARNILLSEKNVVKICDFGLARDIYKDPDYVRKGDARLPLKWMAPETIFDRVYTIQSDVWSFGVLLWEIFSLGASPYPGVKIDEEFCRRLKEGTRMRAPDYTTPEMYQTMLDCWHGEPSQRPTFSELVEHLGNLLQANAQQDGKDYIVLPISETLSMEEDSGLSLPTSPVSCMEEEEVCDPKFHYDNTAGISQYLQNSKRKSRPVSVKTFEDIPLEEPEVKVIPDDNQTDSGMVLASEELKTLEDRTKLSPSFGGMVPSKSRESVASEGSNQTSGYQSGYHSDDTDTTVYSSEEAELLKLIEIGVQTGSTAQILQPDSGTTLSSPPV
T3 sequence (P35916 25-1363): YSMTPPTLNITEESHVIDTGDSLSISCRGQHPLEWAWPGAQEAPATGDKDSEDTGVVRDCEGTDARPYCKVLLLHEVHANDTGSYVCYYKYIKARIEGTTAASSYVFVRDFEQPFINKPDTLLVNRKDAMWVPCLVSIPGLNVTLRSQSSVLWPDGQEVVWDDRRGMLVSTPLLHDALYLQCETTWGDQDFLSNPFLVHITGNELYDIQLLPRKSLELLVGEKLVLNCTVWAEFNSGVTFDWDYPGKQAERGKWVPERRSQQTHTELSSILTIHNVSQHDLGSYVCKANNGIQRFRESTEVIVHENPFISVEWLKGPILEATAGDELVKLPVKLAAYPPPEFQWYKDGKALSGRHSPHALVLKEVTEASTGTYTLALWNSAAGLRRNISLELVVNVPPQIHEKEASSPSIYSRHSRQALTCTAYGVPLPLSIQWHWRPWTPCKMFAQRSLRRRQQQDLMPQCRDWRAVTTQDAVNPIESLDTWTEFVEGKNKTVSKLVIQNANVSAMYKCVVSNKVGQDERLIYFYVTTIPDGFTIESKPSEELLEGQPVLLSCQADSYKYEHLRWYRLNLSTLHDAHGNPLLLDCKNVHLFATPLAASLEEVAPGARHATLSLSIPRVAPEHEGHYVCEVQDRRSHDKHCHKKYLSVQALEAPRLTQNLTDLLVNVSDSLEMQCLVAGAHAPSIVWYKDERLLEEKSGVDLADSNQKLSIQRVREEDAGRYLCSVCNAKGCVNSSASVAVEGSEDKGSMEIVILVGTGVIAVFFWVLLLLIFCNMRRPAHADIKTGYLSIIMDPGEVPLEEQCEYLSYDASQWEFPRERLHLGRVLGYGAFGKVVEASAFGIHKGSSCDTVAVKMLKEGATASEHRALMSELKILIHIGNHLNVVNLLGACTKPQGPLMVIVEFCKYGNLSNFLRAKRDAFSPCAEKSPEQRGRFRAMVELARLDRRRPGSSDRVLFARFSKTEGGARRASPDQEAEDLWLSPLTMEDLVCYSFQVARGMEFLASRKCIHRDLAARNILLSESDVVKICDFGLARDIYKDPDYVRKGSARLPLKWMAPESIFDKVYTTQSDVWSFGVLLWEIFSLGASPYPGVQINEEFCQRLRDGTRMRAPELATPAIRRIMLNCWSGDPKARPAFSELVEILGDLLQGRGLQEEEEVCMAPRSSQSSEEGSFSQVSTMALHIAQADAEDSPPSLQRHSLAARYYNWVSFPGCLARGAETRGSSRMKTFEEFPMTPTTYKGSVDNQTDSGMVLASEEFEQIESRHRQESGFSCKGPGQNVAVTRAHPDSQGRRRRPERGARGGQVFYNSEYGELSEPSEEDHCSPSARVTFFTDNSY
T5 sequence (P35968 20-764 limits assumed): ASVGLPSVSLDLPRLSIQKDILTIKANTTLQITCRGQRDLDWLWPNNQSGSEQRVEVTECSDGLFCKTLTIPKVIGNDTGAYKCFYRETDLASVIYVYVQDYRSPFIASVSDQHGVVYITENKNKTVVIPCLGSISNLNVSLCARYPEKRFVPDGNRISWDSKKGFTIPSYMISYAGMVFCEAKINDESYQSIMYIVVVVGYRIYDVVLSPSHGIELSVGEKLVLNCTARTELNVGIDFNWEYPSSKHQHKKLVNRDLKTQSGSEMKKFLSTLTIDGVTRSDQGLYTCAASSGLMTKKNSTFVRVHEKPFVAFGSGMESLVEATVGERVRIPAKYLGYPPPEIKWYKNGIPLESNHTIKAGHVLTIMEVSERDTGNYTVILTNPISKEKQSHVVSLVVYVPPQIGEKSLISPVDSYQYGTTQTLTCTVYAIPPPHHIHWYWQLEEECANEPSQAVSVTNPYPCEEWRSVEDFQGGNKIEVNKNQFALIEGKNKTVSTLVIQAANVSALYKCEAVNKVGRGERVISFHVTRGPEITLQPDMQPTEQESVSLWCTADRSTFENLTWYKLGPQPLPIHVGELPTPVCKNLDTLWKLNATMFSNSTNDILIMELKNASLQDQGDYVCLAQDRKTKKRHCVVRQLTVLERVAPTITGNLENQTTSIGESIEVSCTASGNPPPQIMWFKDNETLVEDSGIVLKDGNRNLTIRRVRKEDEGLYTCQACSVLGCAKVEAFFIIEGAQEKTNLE
T1 sequence (P17948 27-758): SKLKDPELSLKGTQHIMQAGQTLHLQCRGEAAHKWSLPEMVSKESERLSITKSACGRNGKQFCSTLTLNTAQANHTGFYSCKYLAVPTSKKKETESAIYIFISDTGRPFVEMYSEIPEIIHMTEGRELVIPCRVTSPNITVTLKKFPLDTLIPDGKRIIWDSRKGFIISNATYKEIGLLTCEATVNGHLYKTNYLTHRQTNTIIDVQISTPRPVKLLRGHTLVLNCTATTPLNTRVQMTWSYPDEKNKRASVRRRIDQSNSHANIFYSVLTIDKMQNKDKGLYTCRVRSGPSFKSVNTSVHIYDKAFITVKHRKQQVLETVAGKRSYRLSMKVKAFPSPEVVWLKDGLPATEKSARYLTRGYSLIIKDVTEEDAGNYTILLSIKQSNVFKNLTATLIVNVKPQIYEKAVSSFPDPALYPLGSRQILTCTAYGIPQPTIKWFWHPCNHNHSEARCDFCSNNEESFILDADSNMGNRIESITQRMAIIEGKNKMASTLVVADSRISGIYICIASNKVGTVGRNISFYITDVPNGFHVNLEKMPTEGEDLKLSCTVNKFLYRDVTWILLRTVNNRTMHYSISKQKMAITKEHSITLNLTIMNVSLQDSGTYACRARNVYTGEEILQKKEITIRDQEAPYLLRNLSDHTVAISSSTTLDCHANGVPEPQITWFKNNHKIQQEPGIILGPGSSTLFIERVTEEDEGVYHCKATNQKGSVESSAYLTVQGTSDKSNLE

B1: mature form of VEGF-D generated by furin (ligand, human, UniProt O43915 89-205, looked up)
chain: FAATFYDIETLKVIDEEWQRTQCSPRETCVEVASELGKSTNTFFKPPCVNVFRCGGCCNEESLICMNTSTSYISKQLFEISVPLTSVPELVPVKVANHTGCKCLPTAPRHPYSIIRR
notes: range 89-205; Present in conditioned medium of LoVo cells co-transfected with pVDAPEX FULL-N-FLAG and pcDNA3:furin; not purified; also called ˜21 kDa VEGF-D species; mature VEGF-D
- binding result [1]: no binding

B2: mature VEGF-D: mature form of VEGF-D consisting of dimers of the VHD, lacking both propeptides (protein)
chain: FAATFYDIETLKVIDEEWQRTQCSPRETCVEVASELGKSTNTFFKPPCVNVFRCGGCCNEESLICMNTSTSYISKQLFEISVPLTSVPELVPVKVANHTGCKCLPTAPRHPYSIIRR
- apparent affinity for VEGFR-2 relative to unprocessed mutant VEGF-DSSTS.IISS [2]: ~17,000 fold
- affinity for VEGFR-3 relative to VEGF-DSSTS.IISS [3]: ~18 fold
- affinity for VEGFR-3 relative to unprocessed VEGF-D, previously reported [4]: ~40 fold
- affinity for VEGFR-2 relative to full-length (unprocessed) VEGF-D, previously reported [5]: ~290 fold
- affinity for VEGFR-2 relative to full-length (unprocessed) VEGF-D, previously reported ([5]; listed as mature form of VEGF-D): approximately 290 fold

B3: mature form of VEGF-D generated by furin: ~21 kDa VEGF-D species from LoVo cells co-transfected with VEGF-D-FULL-N-FLAG and furin expression constructs (protein)
chain: FAATFYDIETLKVIDEEWQRTQCSPRETCVEVASELGKSTNTFFKPPCVNVFRCGGCCNEESLICMNTSTSYISKQLFEISVPLTSVPELVPVKVANHTGCKCLPTAPRHPYSIIRR
- binding to the extracellular domain of VEGFR-3 [6]: binds
- binding to the extracellular domain of VEGFR-2 [7]: binds
